Source: the Human Domainome abundance scans (Beltran et al. 2025)
± gives the uncertainty stated by the source.

B1: Far upstream element-binding protein 1, residues 184 to 257; numbered along this chain, Q96AE4 (parent)
chain: GNAVQEIMIPASKAGLVIGKGGETIKQLQERAGVKMVMIQDGPQNTGADKPLRITGDPYKVQQAKEMVLELIRD

Variants of: B1
Experiment: abundance fitness (aPCA) (normalised: wild type 0, dead -1); higher = more abundant; growth selection in yeast, the domain comes from the species named
Conditions: Homo sapiens

Question: Which abundance fitness does the source give for Q40P here?
Answer: -0.052 ± 0.035

Question: With Q40I as the variant, how does the abundance fitness read?
Answer: -0.147 ± 0.065

Question: Which abundance fitness does the source give for Q40S here?
Answer: -0.042 ± 0.032

Question: With Q40M as the variant, how does the abundance fitness read?
Answer: -0.085 ± 0.041

Question: Which abundance fitness does the source give for G33Q here?
Answer: -0.057 ± 0.042

Question: For G33P, which abundance fitness is on record?
Answer: -0.801 ± 0.058

Question: Which abundance fitness does the source give for G33K here?
Answer: -0.097 ± 0.036

Question: Which abundance fitness does the source give for G33I here?
Answer: -1.12 ± 0.22

Question: Which abundance fitness does the source give for A48T here?
Answer: 0.013 ± 0.038

Question: With A48E as the variant, how does the abundance fitness read?
Answer: 0.021 ± 0.034

Question: With A48D as the variant, how does the abundance fitness read?
Answer: 0.077 ± 0.045

Question: With A48R as the variant, how does the abundance fitness read?
Answer: -0.018 ± 0.027

Question: For G47S, which abundance fitness is on record?
Answer: -0.001 ± 0.031

Question: For G47A, which abundance fitness is on record?
Answer: -0.02 ± 0.031

Question: Which abundance fitness does the source give for G47K here?
Answer: 0.061 ± 0.041

Question: With G47H as the variant, how does the abundance fitness read?
Answer: -0.167 ± 0.06

Question: With G47F as the variant, how does the abundance fitness read?
Answer: -0.014 ± 0.053

Question: For G47N, which abundance fitness is on record?
Answer: -0.034 ± 0.052

Question: Which abundance fitness does the source give for G47W here?
Answer: -0.157 ± 0.035

Question: With I25L as the variant, how does the abundance fitness read?
Answer: 0.002 ± 0.032

Question: For I25Y, which abundance fitness is on record?
Answer: -0.332 ± 0.062

Question: Which abundance fitness does the source give for I25S here?
Answer: -0.387 ± 0.035

Question: With D49W as the variant, how does the abundance fitness read?
Answer: -0.114 ± 0.035

Question: For D49Q, which abundance fitness is on record?
Answer: -0.096 ± 0.043

Question: For D49A, which abundance fitness is on record?
Answer: -0.029 ± 0.032

Question: With L69M as the variant, how does the abundance fitness read?
Answer: 0.068 ± 0.04

Question: For L69E, which abundance fitness is on record?
Answer: 0.011 ± 0.034

Question: Which abundance fitness does the source give for L69N here?
Answer: 0.019 ± 0.046

Question: For P43W, which abundance fitness is on record?
Answer: -0.022 ± 0.042

Question: With G15P as the variant, how does the abundance fitness read?
Answer: -0.128 ± 0.034

Question: With G15D as the variant, how does the abundance fitness read?
Answer: -0.031 ± 0.039

Question: For V37K, which abundance fitness is on record?
Answer: 0.039 ± 0.039

Question: Which abundance fitness does the source give for V37W here?
Answer: -0.059 ± 0.033

Question: Which abundance fitness does the source give for V37Q here?
Answer: -0.025 ± 0.038

Question: For V37P, which abundance fitness is on record?
Answer: -0.773 ± 0.05

Question: For Q5N, which abundance fitness is on record?
Answer: -0.083 ± 0.051

Question: For Q5V, which abundance fitness is on record?
Answer: 0.04 ± 0.029

Question: For Q5E, which abundance fitness is on record?
Answer: 0.128 ± 0.034

Question: With Q5Y as the variant, how does the abundance fitness read?
Answer: -0.003 ± 0.051

Question: With Q5G as the variant, how does the abundance fitness read?
Answer: -0.036 ± 0.026

Question: Which abundance fitness does the source give for G21M here?
Answer: -0.033 ± 0.038

Question: With G21H as the variant, how does the abundance fitness read?
Answer: -0.015 ± 0.051

Question: With G21K as the variant, how does the abundance fitness read?
Answer: 0.015 ± 0.037

Question: For G21Q, which abundance fitness is on record?
Answer: -0.028 ± 0.035

Question: With K60P as the variant, how does the abundance fitness read?
Answer: -0.179 ± 0.033

Question: With K60C as the variant, how does the abundance fitness read?
Answer: 0.002 ± 0.039

Question: With K60G as the variant, how does the abundance fitness read?
Answer: -0.086 ± 0.026

Question: For K60V, which abundance fitness is on record?
Answer: -0.581 ± 0.033

Question: With K60W as the variant, how does the abundance fitness read?
Answer: -0.314 ± 0.032

Question: For K26L, which abundance fitness is on record?
Answer: -0.087 ± 0.032

Question: For K26Y, which abundance fitness is on record?
Answer: -0.041 ± 0.048

Question: With K26I as the variant, how does the abundance fitness read?
Answer: 0.013 ± 0.056

Question: Which abundance fitness does the source give for L52K here?
Answer: -0.841 ± 0.057

Question: With L52I as the variant, how does the abundance fitness read?
Answer: -0.055 ± 0.049

Question: For L52Q, which abundance fitness is on record?
Answer: -0.97 ± 0.076

Question: With L52N as the variant, how does the abundance fitness read?
Answer: -0.746 ± 0.075

Question: For R73F, which abundance fitness is on record?
Answer: -0.197 ± 0.055

Question: With R73N as the variant, how does the abundance fitness read?
Answer: -0.004 ± 0.047

Question: With A14E as the variant, how does the abundance fitness read?
Answer: -0.014 ± 0.041

Question: With A14H as the variant, how does the abundance fitness read?
Answer: 0.034 ± 0.049

Question: Which abundance fitness does the source give for A14P here?
Answer: -0.643 ± 0.039

Question: Which abundance fitness does the source give for I7C here?
Answer: -0.394 ± 0.045

Question: Which abundance fitness does the source give for I7V here?
Answer: -0.045 ± 0.03

Question: Which abundance fitness does the source give for I7T here?
Answer: -0.564 ± 0.045

Question: Which abundance fitness does the source give for I7Q here?
Answer: -0.559 ± 0.047

Question: For I72N, which abundance fitness is on record?
Answer: -0.398 ± 0.052

Question: With I72A as the variant, how does the abundance fitness read?
Answer: -0.173 ± 0.032

Question: For I72F, which abundance fitness is on record?
Answer: -0.136 ± 0.045

Question: For I72C, which abundance fitness is on record?
Answer: 0.045 ± 0.04

Question: For L16S, which abundance fitness is on record?
Answer: -0.122 ± 0.031

Question: With L16R as the variant, how does the abundance fitness read?
Answer: -0.087 ± 0.026

Question: With L16P as the variant, how does the abundance fitness read?
Answer: -0.581 ± 0.038

Question: With L16F as the variant, how does the abundance fitness read?
Answer: 0.003 ± 0.051

Question: For L16H, which abundance fitness is on record?
Answer: -0.15 ± 0.047

Question: Which abundance fitness does the source give for L16K here?
Answer: -0.008 ± 0.036

Question: With T55I as the variant, how does the abundance fitness read?
Answer: -0.023 ± 0.049

Question: For T55F, which abundance fitness is on record?
Answer: -0.062 ± 0.051

Question: With T55H as the variant, how does the abundance fitness read?
Answer: -0.096 ± 0.054

Question: For T55M, which abundance fitness is on record?
Answer: -0.008 ± 0.042

Question: For T55Y, which abundance fitness is on record?
Answer: -0.132 ± 0.054

Question: Which abundance fitness does the source give for T55E here?
Answer: -0.086 ± 0.032

Question: Which abundance fitness does the source give for T55V here?
Answer: -0.047 ± 0.031

Question: Which abundance fitness does the source give for Q63M here?
Answer: -0.026 ± 0.036
